From publication PMC5101663 come the findings set out here.

This assay addresses Acinetobacter phage AP205 SpyTag-VLP (one SpyTag per VLP subunit) (Acinetobacter phage AP205). The experiment in a line: covalent conjugation shown by reduced SDS-PAGE with densitometry; antigen and Spy-VLP mixed at 1.5:1 molar ratio (antigen per VLP subunit), overnight at 4 °C in PBS, 0.2% Polysorbate 80, pH 7.2; covalent SpyTag/SpyCatcher bond.

As to “HIS-CSP-SpyCatcher antigen (from UniProt Q7K740 25-383)”, the stoichiometry N (CSP antigens per VLP) worked out at 112.
